Measured values published in paper doi:10.1101/2025.02.28.640611 (bioRxiv, 2025).

Biological target: the molecule itself
Assay: cross-linking

B1: S. mutans ClpX with a C-terminal hexahistidine tag (enzyme)
chain: not shown
In the case of B1, the “stoichiometry N” value is reported as 6.
